Assay [1] addresses PSD-95 PDZ3cα protein (residues R309-S422) (UniProt P78352). Nature of the assay: SPR.
Assay [2] has as its system PDZ3cα fragment. The following applies: cited from earlier work.
In assay [3] the target is PSD-95 PDZ3cα protein (residues R309-S422) (UniProt P78352 309-422). The assay is described as follows: SPR.

Bridges are numbered along the chain shown (N, C = ends). Where no end group is shown, it is not given here. [ ]: non-standard residue; d: D form. Trp(5-OH) = N[C@@H](Cc1c[nH]c2ccc(O)cc12)C(=O)O; Phe(4-NH2) = Nc1ccc(C[C@H](N)C(=O)O)cc1; βAla = NCCC(=O)O

The values below come from article PMC10842001 (FEBS letters, 2023).

Broadly, the Kd is a measure of binding affinity in units of concentration. As usually defined, the koff is the rate constant with which the complex falls apart. A low value points to a long-lived complex. What is called kon is the second-order rate constant of association. The low end stands for slower complex formation, the high end for faster complex formation.

Chain of PSD-95 PDZ3cα protein (residues R309-S422) (UniProt P78352) (P78352 309-422): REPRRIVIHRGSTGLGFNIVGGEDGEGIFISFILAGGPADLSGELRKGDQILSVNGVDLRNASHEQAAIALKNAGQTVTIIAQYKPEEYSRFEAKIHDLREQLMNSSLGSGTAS
Chain of PSD-95 PDZ3cα protein (residues R309-S422) (UniProt P78352 309-422) (P78352 309-422): as above

In assay [1], “V8L (peptide 9), SYNGAP peptide with the substitution V8L” came in with a Kd of 58.4 nM and a koff of 0.00381 s⁻¹.

As for -YKQTSV [CRIPT linear PBM], the “fold higher affinity for PDZ3cα fragment than for the isolated PDZ3 domain” value in assay [2] (ref [31]) was 21 fold.

In the case of -VQQTRV [SynGAP PBM], the “fold higher affinity to the longer PDZ3cα fragment” value in assay [2] (relative to isolated PDZ domains, ref [10], [30]) is reported as 15 fold.

In assay [1], “F4H (peptide 11), SYNGAP peptide with the substitution F4H” had a Kd of 121 nM, a koff of 0.0261 s⁻¹ and a kon of 216000 M⁻¹ s⁻¹.

In assay [1], “V8I (peptide 10), SYNGAP peptide with the substitution V8I” showed a Kd of 101 nM and a koff of 0.00294 s⁻¹.

B1: D-Gln9 (peptide 18), SYNGAP peptide with d-Gln (peptide)
peptide: RRRRRRGSFPPWV[dQ]QTRV
In assay [3], B1 had a Kd of 57.3 nM, a koff of 0.0182 s⁻¹ and a kon of 317000 M⁻¹ s⁻¹.

B2: W7-OHW (peptide 13), SYNGAP peptide with 5-hydroxy-Trp in place of Trp7 (peptide)
peptide: RRRRRRGSFPP[Trp(5-OH)]VQQTRV
Consider B2, for which, in assay [3], the Kd worked out at 446 nM, the koff stood at 0.0106 s⁻¹ and the kon was found to be 24000 M⁻¹ s⁻¹.

B3: F4-NH2F (peptide 12), SYNGAP peptide with ζ-Amino-Phe in place of Phe4 (peptide)
peptide: RRRRRRGS[Phe(4-NH2)]PPWVQQTRV
In assay [3], B3 gave a Kd of 67.8 nM, a koff of 0.0104 s⁻¹ and a kon of 153000 M⁻¹ s⁻¹.

B4: Cyclic peptide derived from CRIPT (peptide 6) (peptide)
peptide: CKNYKKTEV
modifications: lactam 6-8 via βAla
Regarding B4, in assay [3], the koff came to 0.0291 s⁻¹ and the kon stood at 76000 M⁻¹ s⁻¹.

B5: D-Val8 (peptide 17), SYNGAP peptide with d-Val (peptide)
peptide: RRRRRRGSFPPW[dV]QQTRV
Take B5: in assay [3], the Kd worked out at 20.9 nM, the koff came to 0.0459 s⁻¹ and the kon turned out to be 2.19e+06 M⁻¹ s⁻¹.

B6: D-Ser3 (peptide 14), SYNGAP peptide with d-Ser (peptide)
peptide: RRRRRRG[dS]FPPWVQQTRV
In assay [3], B6 came in with a Kd of 7.8 nM, a koff of 0.00493 s⁻¹ and a kon of 633000 M⁻¹ s⁻¹.

B7: D-Pro5 (peptide 16), SYNGAP peptide with d-Pro at the second proline (peptide)
peptide: RRRRRRGSFP[dP]WVQQTRV
Consider B7, for which, in assay [3], the Kd turned out to be 24.3 nM, the koff was 0.0444 s⁻¹ and the kon amounted to 1.83e+06 M⁻¹ s⁻¹.

B8: D-Pro4 (peptide 15), SYNGAP peptide with d-Pro at the first proline (peptide)
peptide: RRRRRRGSF[dP]PWVQQTRV
In assay [3], B8 returned a Kd of 6.1 nM, a koff of 0.0116 s⁻¹ and a kon of 1.88e+06 M⁻¹ s⁻¹.

B9: αC binder (peptide 8), fragment of the SYNGAP peptide made up of only αC helix interacting residues (peptide)
peptide: GSFPPWVQ
In assay [3], B9 returned a dissociation constant (Kd) of 11100 nM, a koff of 0.00592 s⁻¹ and a kon of 1000 M⁻¹ s⁻¹.

B10: Syn3* (peptide 4), active component peptide of Syn3 without the poly-arginine moiety (peptide)
peptide: CGSFPPWVKKTEV
modifications: bridge 10-12; not fully specified (residue 10, bridges)
In assay [3], B10 returned a koff of 0.0287 s⁻¹ and a kon of 439000 M⁻¹ s⁻¹.
